Legend:
[1] = target: T1, soluble KDR (VEGF Receptor 2 D1-7, Cat. #676490, Calbiochem) (human, UniProt P35968 20-764); test: ELISA, plate-coated soluble KDR 250 ng/mL, hybridoma supernatant 1:5
T1 construct: extracellular domain; Bought reagent; also called soluble human KDR; immobilized soluble KDR
Procedure: To screen by binding to immobilized soluble KDR, plates were coated with KDR (Calbiochem) at 250 ng/mL overnight at 4° C. After blocking and washing the coated plates, the candidate hybridoma supernatants (at 1:5 dilution) were transferred to the plates and incubated for one hour at room temperature. The plates were then washed and incubated with secondary antibody (at 1:4000 dilution) for one hour at room temperature.

[2] = target: T2, human KDR (VEGFR2) on cells (human, UniProt P35968 20-1356); test: cell-based or functional assay
T2 sequence (P35968 20-1356): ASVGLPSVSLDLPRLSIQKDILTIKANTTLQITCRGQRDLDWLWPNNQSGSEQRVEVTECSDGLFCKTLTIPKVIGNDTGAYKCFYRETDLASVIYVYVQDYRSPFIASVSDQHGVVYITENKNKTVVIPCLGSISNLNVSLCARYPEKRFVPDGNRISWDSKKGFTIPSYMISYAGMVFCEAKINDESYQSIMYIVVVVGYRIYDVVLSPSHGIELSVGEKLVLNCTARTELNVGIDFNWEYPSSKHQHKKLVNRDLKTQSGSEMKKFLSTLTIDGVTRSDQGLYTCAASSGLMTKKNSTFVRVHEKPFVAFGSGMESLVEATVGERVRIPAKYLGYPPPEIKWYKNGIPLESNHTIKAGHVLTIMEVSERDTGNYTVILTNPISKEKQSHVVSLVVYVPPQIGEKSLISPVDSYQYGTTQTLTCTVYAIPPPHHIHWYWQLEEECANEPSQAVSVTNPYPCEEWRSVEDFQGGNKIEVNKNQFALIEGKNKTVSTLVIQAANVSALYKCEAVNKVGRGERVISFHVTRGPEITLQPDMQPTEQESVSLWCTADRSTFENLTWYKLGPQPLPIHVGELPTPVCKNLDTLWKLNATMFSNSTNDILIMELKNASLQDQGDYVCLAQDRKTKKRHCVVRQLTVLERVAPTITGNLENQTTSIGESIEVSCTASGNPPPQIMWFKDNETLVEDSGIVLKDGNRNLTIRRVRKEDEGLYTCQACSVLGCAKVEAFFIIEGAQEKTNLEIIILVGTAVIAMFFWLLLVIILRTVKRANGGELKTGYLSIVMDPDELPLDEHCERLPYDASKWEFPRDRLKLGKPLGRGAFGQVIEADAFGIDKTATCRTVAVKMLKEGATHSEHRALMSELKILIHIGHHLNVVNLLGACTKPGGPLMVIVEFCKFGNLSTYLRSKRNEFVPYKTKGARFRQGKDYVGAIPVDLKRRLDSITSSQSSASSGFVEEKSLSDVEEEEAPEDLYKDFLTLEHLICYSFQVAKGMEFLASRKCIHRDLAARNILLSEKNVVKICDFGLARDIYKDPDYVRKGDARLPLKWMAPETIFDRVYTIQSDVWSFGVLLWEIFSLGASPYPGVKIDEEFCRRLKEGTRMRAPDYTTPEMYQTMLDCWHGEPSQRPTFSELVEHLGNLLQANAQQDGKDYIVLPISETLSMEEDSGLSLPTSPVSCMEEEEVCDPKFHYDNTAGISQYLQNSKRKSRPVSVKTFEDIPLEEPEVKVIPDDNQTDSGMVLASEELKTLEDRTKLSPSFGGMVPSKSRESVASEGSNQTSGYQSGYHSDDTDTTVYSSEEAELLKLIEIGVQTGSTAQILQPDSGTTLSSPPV

[3] = target: T2, human KDR (VEGFR2) on cells; test: cell-based or functional assay; remark: listed apart in the source
[4] = target: T2, human KDR (VEGFR2) on cells; test: cell-based or functional assay; remark: listed apart in the source
[5] = target: T2, human KDR (VEGFR2) on cells; test: FACS on HUVEC, hybridoma supernatant 1:50
Procedure: HUVECs were seeded at 15,000 cells/well and incubated with 100 μL of sample supernatant (at 1:50 dilution) for one hour at 4° C. The positive control was goat anti-KDR antibody (R&D Systems, Inc.), and negative controls included irrelevant hybridoma supernatants at the same dilution. The cells were then washed and incubated with Cy5-conjugated goat anti-human antibody at 5 μg/mL and 7-Amino-Actinomycin D (7AAD) at 5 μg/mL for 15 minutes at 4° C. Bound KDR was detected using FACS analysis.

[6] = target: T3, mouse KDR (Flk-1)/Fc (Cat. #443-KD/CF, R&D Systems) (mouse, UniProt P35918 20-762); test: ELISA, plate-coated Flk-1/Fc 500 ng/mL, hybridoma supernatant 1:5
T3 construct: Bought reagent; also called mouse VEGFR2; KDR mouse ortholog; Fc part of the bought chimera not given
T3 sequence (P35918 20-762): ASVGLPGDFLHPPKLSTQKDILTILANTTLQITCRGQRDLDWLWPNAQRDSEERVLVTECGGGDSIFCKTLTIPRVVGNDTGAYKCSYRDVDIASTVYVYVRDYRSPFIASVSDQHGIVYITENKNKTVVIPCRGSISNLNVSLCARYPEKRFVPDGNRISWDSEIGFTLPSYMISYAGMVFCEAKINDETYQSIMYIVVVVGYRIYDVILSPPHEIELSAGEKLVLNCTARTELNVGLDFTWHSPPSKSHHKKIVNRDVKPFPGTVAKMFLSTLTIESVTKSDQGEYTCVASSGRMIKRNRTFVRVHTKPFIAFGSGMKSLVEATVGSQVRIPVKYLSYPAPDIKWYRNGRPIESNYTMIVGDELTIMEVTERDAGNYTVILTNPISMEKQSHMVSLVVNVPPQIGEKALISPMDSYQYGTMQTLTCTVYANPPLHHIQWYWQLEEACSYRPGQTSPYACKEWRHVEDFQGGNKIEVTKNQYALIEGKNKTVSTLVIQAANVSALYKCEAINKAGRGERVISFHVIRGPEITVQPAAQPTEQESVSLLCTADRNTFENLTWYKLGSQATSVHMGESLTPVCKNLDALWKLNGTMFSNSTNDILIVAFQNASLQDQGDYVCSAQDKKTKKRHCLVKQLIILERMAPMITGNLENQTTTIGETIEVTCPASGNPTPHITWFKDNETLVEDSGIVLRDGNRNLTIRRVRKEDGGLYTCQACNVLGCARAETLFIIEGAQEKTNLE
Procedure: The cross-reactivity of antibodies in the hybridoma supernatant was tested against KDR mouse ortholog (mouse VEGFR2, or Flk-1) and human VEGFR1 (Flt-1). Cross-reactivity was measured using an ELISA based assay.
After washing and blocking the plates, the antibody-containing supernatants were added (at 1:5 dilution) into the coated wells and incubated for one hour at room temperature. The plates were then incubated with mouse anti-human IgG 2, 3 and 4 and subsequently with goat anti-mouse IgG Fc POD, to detect and measure bound antibodies.

[7] = target: T4, soluble KDR extracellular domain (ECD) (Calbiochem) (human, UniProt P35968 20-764); test: High Antigen ELISA, KDR coat 500 ng/mL, supernatant 1:675
T4 construct: extracellular domain; Bought protein; also called KDR-ECD; VEGF Receptor 2 D1-7, Cat. #676490
T4 sequence (P35968 20-764): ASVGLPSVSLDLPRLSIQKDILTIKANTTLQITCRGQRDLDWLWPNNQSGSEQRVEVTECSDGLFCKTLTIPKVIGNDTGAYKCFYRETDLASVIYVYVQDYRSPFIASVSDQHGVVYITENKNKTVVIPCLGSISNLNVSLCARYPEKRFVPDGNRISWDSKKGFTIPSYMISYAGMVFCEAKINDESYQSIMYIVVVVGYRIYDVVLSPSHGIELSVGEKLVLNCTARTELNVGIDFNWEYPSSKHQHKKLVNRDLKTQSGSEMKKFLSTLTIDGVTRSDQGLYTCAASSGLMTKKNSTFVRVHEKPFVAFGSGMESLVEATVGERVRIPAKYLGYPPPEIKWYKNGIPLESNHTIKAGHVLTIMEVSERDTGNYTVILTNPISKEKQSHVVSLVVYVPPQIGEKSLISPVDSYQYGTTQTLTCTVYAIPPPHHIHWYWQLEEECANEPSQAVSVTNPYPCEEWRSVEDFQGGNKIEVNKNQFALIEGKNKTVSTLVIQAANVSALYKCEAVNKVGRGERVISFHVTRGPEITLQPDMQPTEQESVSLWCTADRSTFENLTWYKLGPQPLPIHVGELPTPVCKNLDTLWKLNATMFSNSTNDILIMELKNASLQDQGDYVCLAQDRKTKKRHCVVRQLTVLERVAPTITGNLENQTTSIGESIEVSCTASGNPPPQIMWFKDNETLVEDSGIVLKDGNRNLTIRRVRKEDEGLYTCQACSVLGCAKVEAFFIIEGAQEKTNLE

[8] = target: T4, soluble KDR extracellular domain (ECD) …; test: Limited Antigen ELISA, KDR coat 6.25 ng/mL, supernatant 1:25
Procedure: (§1) Samples containing one concentration of antibody (Ab) (1:25 dilution) were incubated overnight to allow Ab binding to approach equilibrium. The low antigen concentration limited the effect of antibody concentration, allowing ranking of the antibodies based on their relative affinity.

[9] = target: T4, soluble KDR extracellular domain (ECD) …; test: High Antigen ELISA, KDR coat 500 ng/mL, supernatant 1:18,225
[10] = target: KDR endogenously expressed on human umbilical vein endothelial cells (HUVEC) (human, UniProt P35968 20-1356); test: cell-based or functional assay
KDR endogenously expressed on human umbilical vein endothelial cells (HUVEC), sequence (P35968 20-1356): as the sequence (P35968 20-1356) above

[11] = target: T4, soluble KDR extracellular domain (ECD) …; test: Limited Antigen ELISA, KDR coat 25 ng/mL, supernatant 1:25
Procedure: as §1

[12] = target: T4, soluble KDR extracellular domain (ECD) …; test: High Antigen ELISA, KDR coat 500 ng/mL, supernatant 1:25
[13] = target: T4, soluble KDR extracellular domain (ECD) …; test: High Antigen ELISA, KDR coat 500 ng/mL, supernatant 1:2025
[14] = target: T4, soluble KDR extracellular domain (ECD) …; test: Limited Antigen ELISA, KDR coat 50 ng/mL, supernatant 1:25
Procedure: as §1

[15] = target: T4, soluble KDR extracellular domain (ECD) …; test: High Antigen ELISA, KDR coat 500 ng/mL, supernatant 1:6075
[16] = target: T4, soluble KDR extracellular domain (ECD) …; test: High Antigen ELISA, KDR coat 500 ng/mL, supernatant 1:225
[17] = target: T4, soluble KDR extracellular domain (ECD) …; test: Limited Antigen ELISA, KDR coat 3.125 ng/mL, supernatant 1:25
Procedure: as §1

[18] = target: T4, soluble KDR extracellular domain (ECD) …; test: High Antigen ELISA, KDR coat 500 ng/mL, supernatant 1:75
[19] = target: T4, soluble KDR extracellular domain (ECD) …; test: Limited Antigen ELISA, KDR coat 12.5 ng/mL, supernatant 1:25
Procedure: as §1

T1 sequence (P35968 20-764): as the sequence (P35968 20-764) above

B1: anti-KDR monoclonal antibody 1G6 (antibody, V domains shown)
VH: EVQLLESGGGLVQPGGSLRLSCAASGFTFSSYAMSWVRQAPGKGLEWVSAISGGGGNTYYADSVKGRFTISRDNSKNTLYLQMNSLRAEDTAVYYCSKVATDYWGQGTLVTVSS
VL: QPVLTQSSSASASLGSSVKLTCTLSSGHSSYIIAWHQQQPGKAPRYLMKLEGSGSYNKGSGVPDRFSGSSSGADRYLTISNLQFEDEADYYCETWDSYTVVFGGGTKLTVL
notes: Fully human mAb from XenoMouse (IgG2 or IgG4 strain); tested here as hybridoma supernatant
[1]
  KDR OD(450 nm): 6 OD450
[2]
  % Inhibition of VEGF-E-mediated pTyr Activity: 24%
[3]
  % Inhibition of VEGF165-mediated pTyr Activity, Average: 71%
  % Inhibition of VEGF165-mediated pTyr Activity, n = 1: 89%
  % Inhibition of VEGF165-mediated pTyr Activity, n = 2: 67%
  % Inhibition of VEGF165-mediated pTyr Activity, n = 3: 58%
[4]
  HUVEC survival (n = 1) 1:10 dilution of supernatant (RLU): 47800 RLU
  HUVEC survival (n = 2) 1:20 dilution of supernatant (RLU): 10200 RLU
[5]
  FACS Geometric Mean: 32
[6]
  OD (450 nm): 0.055 OD450

B2: anti-KDR monoclonal antibody 33D5 (antibody, V domains shown)
VH: QVQLVQSGAEVKKPGASVKVSCKASGYTFGSYDINWVRQATGQGLEWMGWMNPNSGNTGYAQKFQGRVTLTRNTSIRTVYMELSSLRSEDTAVYYCARGGYSNLGWFDPWGQGSLVTVSS
VL: DIQMTQSPSSVSVSVGDRVTITCRASQGISSWLAWYQQKPGKAPKLLIYAASSLQSGVPSRFSGSGSGTDFTLTISSLQPEDFATYYCQQANSFPFTFGPGTKVDIK
notes: Fully human mAb from XenoMouse (IgG2 or IgG4 strain); hybridoma supernatant
[1]
  KDR OD(450 nm): 3.59 OD450
[2]
  % Inhibition of VEGF-E-mediated pTyr Activity: 30%
[3]
  % Inhibition of VEGF165-mediated pTyr Activity, Average: 77%
  % Inhibition of VEGF165-mediated pTyr Activity, n = 1: 95%
  % Inhibition of VEGF165-mediated pTyr Activity, n = 2: 72%
  % Inhibition of VEGF165-mediated pTyr Activity, n = 3: 63%
[4]
  HUVEC survival (n = 1) 1:10 dilution of supernatant (RLU): 43400 RLU
  HUVEC survival (n = 2) 1:20 dilution of supernatant (RLU): 706 RLU
[5]
  FACS Geometric Mean: 24

B3: anti-KDR monoclonal antibody 30D7 (antibody, V domains shown)
VH: QVPLVESGGGVVQPGRSLRLSCAASGFTFSSYGMHWVRQAPGKGLEWVAVIWYDGSNKYYADSVKGRFTISRDNSKNTLYLQMNSLRAEDTAVYYCARGVTMVRGVIIARYYYGLDVWGQGTTVTVSS
VL: DIVMTQTPLSSPVTLGQPASISCRSSQSLVHSDGNTYLSWLQQRPGQPPRLLIYKISNRFFGVPDRFSGSGAGTDFTLKIGRVEAEDVGLYYCMQSTQFPLTFGGGTKVEIK
notes: as for B2
[1]
  KDR OD(450 nm): 3.45 OD450
[2]
  % Inhibition of VEGF-E-mediated pTyr Activity: 24%
[3]
  % Inhibition of VEGF165-mediated pTyr Activity, Average: 76%
  % Inhibition of VEGF165-mediated pTyr Activity, n = 1: 99%
  % Inhibition of VEGF165-mediated pTyr Activity, n = 2: 71%
  % Inhibition of VEGF165-mediated pTyr Activity, n = 3: 59%
[4]
  HUVEC survival (n = 1) 1:10 dilution of supernatant (RLU): 28300 RLU
  HUVEC survival (n = 2) 1:20 dilution of supernatant (RLU): 2520 RLU
[5]
  FACS Geometric Mean: 31

B4: anti-KDR monoclonal antibody 29A3 (antibody, V domains shown)
VH: QVQLQESGPGLVKPSETLSLTCTVSGGSISSYFWSWIRQPAGKGLEWIGRIYFSGRTNYNPSLKSRVTMSVETSKNQFSLKLNSVTAADTAVYYCARDGGWNYDVAFDYWGQGTLVTVSS
VL: QAVLTQPSSLSASPGASASLTCTLRSGINVGTYRIYWYQQKPGSPPQYLLRYKSDSDQLQGSGVPSRFSGSKDASANAGILLISGLQSEDEADYYCMVWHSNTWVFGGGTKLTVL
notes: as for B2
[1]
  KDR OD(450 nm): 0.814 OD450
[2]
  % Inhibition of VEGF-E-mediated pTyr Activity: 22%
[3]
  % Inhibition of VEGF165-mediated pTyr Activity, Average: 77%
  % Inhibition of VEGF165-mediated pTyr Activity, n = 1: 92%
  % Inhibition of VEGF165-mediated pTyr Activity, n = 2: 66%
  % Inhibition of VEGF165-mediated pTyr Activity, n = 3: 72%
[4]
  HUVEC survival (n = 1) 1:10 dilution of supernatant (RLU): 36400 RLU
  HUVEC survival (n = 2) 1:20 dilution of supernatant (RLU): 2450 RLU
[5]
  FACS Geometric Mean: 30

B5: anti-KDR monoclonal antibody 32B2 (antibody, V domains shown)
VH: EVQLLESGGGLVQPGGSLRLSCAASGFTFSNYAMSWVRQAPGKGLDWVSAISGRGGSTYYADSVKGRFTISRDNSKNTLFLLMNSLRAEDTAVYYCAKASGDDWGQGTLVTVSS
VL: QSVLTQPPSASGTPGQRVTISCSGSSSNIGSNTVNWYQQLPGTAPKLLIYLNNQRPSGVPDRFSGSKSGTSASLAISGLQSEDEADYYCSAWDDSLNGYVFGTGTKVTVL
notes: as for B2
[1]
  KDR OD(450 nm): 1.11 OD450
[2]
  % Inhibition of VEGF-E-mediated pTyr Activity: 15%
[3]
  % Inhibition of VEGF165-mediated pTyr Activity, Average: 77%
  % Inhibition of VEGF165-mediated pTyr Activity, n = 1: 91%
  % Inhibition of VEGF165-mediated pTyr Activity, n = 2: 75%
  % Inhibition of VEGF165-mediated pTyr Activity, n = 3: 66%
[4]
  HUVEC survival (n = 1) 1:10 dilution of supernatant (RLU): 19300 RLU
  HUVEC survival (n = 2) 1:20 dilution of supernatant (RLU): 400 RLU
[5]
  FACS Geometric Mean: 26

B6: anti-KDR monoclonal antibody 29A11 (antibody, V domains shown)
VH: EVQLLESGGGLVQPGGSLRLSCAASGFTFSNYAMNWVRQAPGKGLEWVSAISGGGGNTYYADSVKGRFTISRDNSKNTLYLQMNRLRAEDTAVYYCAKASGDDWGQGTLVTVSS
VL: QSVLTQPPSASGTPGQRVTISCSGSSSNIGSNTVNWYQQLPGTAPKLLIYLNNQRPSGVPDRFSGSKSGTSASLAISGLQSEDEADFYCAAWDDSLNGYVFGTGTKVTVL
notes: as for B2
[1]
  KDR OD(450 nm): 3.53 OD450
[2]
  % Inhibition of VEGF-E-mediated pTyr Activity: 15%
[3]
  % Inhibition of VEGF165-mediated pTyr Activity, Average: 78%
  % Inhibition of VEGF165-mediated pTyr Activity, n = 1: 96%
  % Inhibition of VEGF165-mediated pTyr Activity, n = 2: 72%
  % Inhibition of VEGF165-mediated pTyr Activity, n = 3: 66%
[4]
  HUVEC survival (n = 1) 1:10 dilution of supernatant (RLU): 34600 RLU
  HUVEC survival (n = 2) 1:20 dilution of supernatant (RLU): 27700 RLU
[5]
  FACS Geometric Mean: 31

B7: anti-KDR monoclonal antibody 30E3 (antibody, V domains shown)
VH: EVQLLESGGGLVQPGGSLRLSCAASGFTFSNYALSWVRQAPGKGLEWVSAISGSGRNTYYADSVKGRFTLSRDNSKNTLFLQMNSLRAEDTAVYYCAKASGDNWGQGTLVTVSS
VL: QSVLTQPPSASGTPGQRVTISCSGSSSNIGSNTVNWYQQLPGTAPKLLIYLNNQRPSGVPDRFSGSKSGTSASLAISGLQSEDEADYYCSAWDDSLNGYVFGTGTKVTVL
notes: Fully human mAb from XenoMouse (IgG2 or IgG4 strain); hybridoma supernatant; also called 30E3.1; 30E3.2
[1]
  KDR OD(450 nm): 4.18 OD450
[2]
  % Inhibition of VEGF-E-mediated pTyr Activity: 19%
[3]
  % Inhibition of VEGF165-mediated pTyr Activity, Average: 71%
  % Inhibition of VEGF165-mediated pTyr Activity, n = 1: 89%
  % Inhibition of VEGF165-mediated pTyr Activity, n = 2: 67%
  % Inhibition of VEGF165-mediated pTyr Activity, n = 3: 58%
[4]
  HUVEC survival (n = 1) 1:10 dilution of supernatant (RLU): 37500 RLU
  HUVEC survival (n = 2) 1:20 dilution of supernatant (RLU): 30400 RLU
[5]
  FACS Geometric Mean: 36

B8: 33C3 (antibody, V domains shown)
VH: QVQLVESGGGLVKPGESLRLSCAASGFTFSDYYMSWIRQAPGKGLEWVSYISHGGSTIYYADSVKGRFTISRDNAKNSLYLQMNSLRVEDTAVYFCARDDFWSGYYFNWFDPWGQGALVTVSS
VL: DIQMTQYPLSLSASVGDRVTITCRASQSISSFLNWYHQKPGKAPKLLIYGTSSLQSGVPSRFSGSGSGTDFTLTISSLQPEDFATYYCQQTYSIPLTFGGGTNVEIK
notes: Fully human mAb from XenoMouse hybridoma, tested as hybridoma supernatant
[7]
  ELISA reading: 2.55
[8]
  ELISA reading: 0.37
[9]
  ELISA reading: 0.18
[10]
  VEGF-E-mediated Survival % Inhibition (Average): 74%
  VEGF-E-mediated Survival % Inhibition (n = 1): 78%
  VEGF-E-mediated Survival % Inhibition (n = 2): 69%
[11]
  ELISA reading: 1.32
[12]
  ELISA reading: 4.96
[13]
  ELISA reading: 0.84
[14]
  ELISA reading: 3
[15]
  ELISA reading: 0.31
[16]
  ELISA reading: 4.31
[17]
  ELISA reading: 0.2
[18]
  ELISA reading: 4.96
[19]
  ELISA reading: 0.72

Source: patent US20100260765A1 (AstraZeneca / MedImmune, published 2010)
